Data: US20250074980A1 (BRIGHAM AND WOMEN S HOSPITAL, published 2025)

Experiments:
[1] = target: T1, His-tagged CEACAM1 (human, UniProt P13688 35-428); test: SPR multi-cycle, IgG captured
T1 construct: 45 kDa SPR analyte; also called CEACAM1-HIS; CEACAM1 analyte
T1 sequence: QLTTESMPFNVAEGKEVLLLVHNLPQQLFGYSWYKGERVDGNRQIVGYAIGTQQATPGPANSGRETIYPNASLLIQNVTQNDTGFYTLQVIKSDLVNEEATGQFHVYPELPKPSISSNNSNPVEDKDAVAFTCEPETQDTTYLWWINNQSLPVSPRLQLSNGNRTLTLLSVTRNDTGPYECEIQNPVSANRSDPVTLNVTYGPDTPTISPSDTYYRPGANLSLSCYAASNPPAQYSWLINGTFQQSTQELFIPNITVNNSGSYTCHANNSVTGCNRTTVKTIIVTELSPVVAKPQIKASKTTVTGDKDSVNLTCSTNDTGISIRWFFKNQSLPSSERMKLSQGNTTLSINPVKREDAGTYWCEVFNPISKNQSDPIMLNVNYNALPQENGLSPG
Experimental: As an alternative approach to assess the binding of the 36 antibody combinations and the three control antibodies to CEACAM1, a kinetic analysis was performed on a Biacore T200 (serial no. 1909913) running Biacore T200 Evaluation Software V2.0.1 (Uppsala, Sweden). All experiments were run at 25° C. with HBS-P+ running buffer (pH 7.4) (GE Healthcare, cat. no. BR100671). All kinetic experiments were performed using His-tagged CEACAM1 as the analyte. For all experiments, antibodies were immobilized onto a Series S Protein A sensor chip surface. For kinetic experiments, the amount of immobilized/captured ligand was limited to avoid mass transfer effects at the surface of the chip with the surface ideally having an analyte binding level (Rₘₐₓ) of 50-150 RUs. Using a MW of 45 kDa for the CEACAM1 analyte, 150 kDa for the antibody ligand (estimated value for IgG), 50 RU for Rmax and the stoichiometry (Sm) as 2 due to the ability of each antibody to bind 2 target molecules, a target response level of ˜75 RUs was set for capture of all the sample antibodies.
The signal from the reference channel Fc1 was subtracted from that of Fc2, Fc3 and Fc4 to correct for differences in non-specific binding to a reference surface, a global Rmax parameter was used in the 1-to-1 binding model. The relative Kp compared to […] was calculated by dividing the Kp of the humanized CEACAM antibody variants by that of the chimeric antibody VH0/Vκ0 on the same chip. A summary of the averaged relative Kp obtained for the 12 antibody combinations analyzed using multi cycle kinetics can be found in Table 5.

[2] = target: T2, CEACAM6 on transfected HeLa cells (human, UniProt P40199 35-320); test: flow cytometry, HeLa-CEACAM6 transfectants, % positive cells
T2 construct: whole, on cells; also called HeLa-CEACAM6; HeLa C6
T2 sequence (looked up): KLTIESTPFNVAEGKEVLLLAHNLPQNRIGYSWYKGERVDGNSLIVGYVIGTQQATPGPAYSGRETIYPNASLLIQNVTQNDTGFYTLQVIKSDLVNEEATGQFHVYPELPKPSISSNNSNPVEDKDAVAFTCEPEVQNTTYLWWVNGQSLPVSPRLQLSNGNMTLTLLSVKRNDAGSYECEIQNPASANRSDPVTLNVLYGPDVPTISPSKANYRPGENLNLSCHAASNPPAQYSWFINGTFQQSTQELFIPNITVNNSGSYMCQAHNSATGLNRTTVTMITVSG

B1: chimeric antibody VH0/Vκ0 (antibody, IgG4, V domains shown)
VH: EVQLVESGGDLVKPGGSLKLACAASGFIFSSHGMSWVRQTPDKRLEWVATISSGGTYTYYPDSVKGRFTISRDNDKNTLYLQMNSLKSEDTAMYYCARHDFDYDAAWFAYWGQGTLVTVSS
VL: QIVLTQSPALMSASPGVKVTMTCSANSSVSYMYWYRQKPRSSPKPWIYLTSNLASGVPARFSGSGSGTSYSLTISSMEAEDAATYYCQQWSSNPPTFGSGTKLEIK
notes: IgG4 (S241P), kappa; also called VH0/Vκ0 (control); Chimeric VH0/Vκ0
relative KD to VH0/Vκ0 [1]: 1 | binding result [2]: no binding
